Laboratory results: article PMC2756588

T1: Bud14, P27637
T1 sequence (P27637 247-328, looked up): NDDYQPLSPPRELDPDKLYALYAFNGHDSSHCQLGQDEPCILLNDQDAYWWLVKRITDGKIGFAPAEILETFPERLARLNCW

T2: Fus1, P11710
T2 sequence (P11710 432-512, looked up): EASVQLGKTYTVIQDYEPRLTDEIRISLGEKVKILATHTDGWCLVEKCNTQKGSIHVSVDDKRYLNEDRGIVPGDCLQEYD

T3: Pex13, P80667
T3 sequence (P80667 295-386, looked up): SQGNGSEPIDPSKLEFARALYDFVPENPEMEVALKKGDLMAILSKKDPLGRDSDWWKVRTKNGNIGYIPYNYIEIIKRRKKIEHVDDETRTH

T4: Boi1, P38041
T4 sequence (P38041 1-86, looked up): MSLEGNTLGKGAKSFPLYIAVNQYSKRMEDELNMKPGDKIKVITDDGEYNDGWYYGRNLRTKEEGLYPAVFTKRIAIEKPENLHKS

T5: Bbc1, P47068
T5 sequence (P47068 1-78, looked up): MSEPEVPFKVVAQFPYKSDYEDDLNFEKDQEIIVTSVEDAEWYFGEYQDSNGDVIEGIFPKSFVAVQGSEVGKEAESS

T6: Boi2, P39969
T6 sequence (P39969 32-116, looked up): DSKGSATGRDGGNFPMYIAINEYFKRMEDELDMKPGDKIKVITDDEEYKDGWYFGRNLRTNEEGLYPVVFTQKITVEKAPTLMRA

T7: Abp1, P15891
T7 sequence (P15891 535-592, looked up): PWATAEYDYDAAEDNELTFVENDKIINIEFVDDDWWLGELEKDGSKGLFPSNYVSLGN

T8: Hse1, P38753
T8 sequence (P38753 208-285, looked up): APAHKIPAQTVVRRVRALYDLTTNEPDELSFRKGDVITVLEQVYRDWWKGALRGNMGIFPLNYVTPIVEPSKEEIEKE

T9: Cdc25, P04821
T9 sequence (P04821 50-136, looked up): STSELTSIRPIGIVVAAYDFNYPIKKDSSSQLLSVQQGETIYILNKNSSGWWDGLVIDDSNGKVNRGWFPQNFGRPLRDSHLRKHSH

T10: Hof1, Q05080
T10 sequence (Q05080 590-669, looked up): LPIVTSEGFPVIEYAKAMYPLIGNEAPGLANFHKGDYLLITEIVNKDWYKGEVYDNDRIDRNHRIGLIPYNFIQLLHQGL

T11: Sla1-2, P32790
T11 sequence (P32790 60-140, looked up): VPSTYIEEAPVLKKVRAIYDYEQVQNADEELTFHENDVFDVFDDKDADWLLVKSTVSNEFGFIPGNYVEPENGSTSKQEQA

T12: Bzz1-2, P38822
T12 sequence (P38822 568-633, looked up): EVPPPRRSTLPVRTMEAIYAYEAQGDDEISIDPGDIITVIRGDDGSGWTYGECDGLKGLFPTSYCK

T13: Myo5, Q04439
T13 sequence (Q04439 1072-1160, looked up): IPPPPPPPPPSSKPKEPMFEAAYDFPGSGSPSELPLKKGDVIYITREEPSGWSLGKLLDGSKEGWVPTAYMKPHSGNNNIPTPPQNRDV

T14: Bzz1-1, P38822
T14 sequence (P38822 478-572, looked up): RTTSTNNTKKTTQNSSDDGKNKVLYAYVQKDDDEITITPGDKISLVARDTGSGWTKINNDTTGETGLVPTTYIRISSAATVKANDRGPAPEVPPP

T15: Nbp2, Q12163
T15 sequence (Q12163 103-180, looked up): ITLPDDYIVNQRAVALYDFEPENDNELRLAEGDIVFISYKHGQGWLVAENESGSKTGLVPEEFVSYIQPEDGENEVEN

T16: Lsb3, P43603
T16 sequence (P43603 385-451, looked up): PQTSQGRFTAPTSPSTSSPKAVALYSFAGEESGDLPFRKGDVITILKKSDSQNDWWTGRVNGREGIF

T17: Cyk3, Q07533
T17 sequence (Q07533 1-83, looked up): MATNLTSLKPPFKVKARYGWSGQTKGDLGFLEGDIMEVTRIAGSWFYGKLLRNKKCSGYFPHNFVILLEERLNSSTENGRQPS

T18: Lsb4, P32793
T18 sequence (P32793 402-468, looked up): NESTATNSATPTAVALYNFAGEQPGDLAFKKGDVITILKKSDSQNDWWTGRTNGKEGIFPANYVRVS

T19: Sla1-3, P32790
T19 sequence (P32790 344-424, looked up): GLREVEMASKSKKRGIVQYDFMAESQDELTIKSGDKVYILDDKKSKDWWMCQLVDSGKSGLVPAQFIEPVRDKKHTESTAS

T20: Pin3, Q06449
T20 sequence (Q06449 53-122, looked up): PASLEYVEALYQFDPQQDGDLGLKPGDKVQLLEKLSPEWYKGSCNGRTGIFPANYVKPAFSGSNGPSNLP

T21: Lsb1, P53281
T21 sequence (P53281 45-122, looked up): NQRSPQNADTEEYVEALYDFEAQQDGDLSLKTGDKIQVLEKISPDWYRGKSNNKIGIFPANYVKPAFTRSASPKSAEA

B1: unnamed (peptide)
chain: QLLNPNRRAPRRPLS
B2: unnamed (peptide)
chain: VRTRRRPPPPPIPST
B3: unnamed (peptide)
chain: PELAPKREAPKPPAN
B4: unnamed (peptide)
chain: LEFRAILFIPKRAPF

molecular target: T1, Bud14, P27637; assay: SPOT array; conditions: median of control spots 956

SPOT intensity | Binder
11 | B1
8 | B2
0 | B3
13 | B4

molecular target: T2, Fus1, P11710; assay: SPOT array; conditions: median of control spots 1200

SPOT intensity | Binder
1 | B1
0 | B2
0 | B3
87 | B4

molecular target: T3, Pex13, P80667; assay: SPOT array; conditions: median of control spots 1341

SPOT intensity | Binder
21 | B1
8 | B2
0 | B3
59 | B4

molecular target: T4, Boi1, P38041; assay: SPOT array; conditions: median of control spots 1162

SPOT intensity | Binder
5 | B1
1 | B2
1 | B3
10 | B4

molecular target: T5, Bbc1, P47068; assay: SPOT array; conditions: median of control spots 796

SPOT intensity | Binder
158 | B1
115 | B2
7 | B3
22 | B4

molecular target: T6, Boi2, P39969; assay: SPOT array; conditions: median of control spots 1161

SPOT intensity | Binder
2 | B1
1 | B2
1 | B3
4 | B4

molecular target: T7, Abp1, P15891; assay: SPOT array; conditions: median of control spots 935

SPOT intensity | Binder
125 | B1
107 | B2
0 | B3
92 | B4

molecular target: T8, Hse1, P38753; assay: SPOT array; conditions: median of control spots 1727

SPOT intensity | Binder
20 | B1
29 | B2
0 | B3
6 | B4

molecular target: T9, Cdc25, P04821; assay: SPOT array; conditions: median of control spots 969

SPOT intensity | Binder
16 | B1
0 | B2
0 | B3
29 | B4

molecular target: T10, Hof1, Q05080; assay: SPOT array; conditions: median of control spots 4086

SPOT intensity | Binder
3 | B1
6 | B2
0 | B3
5 | B4

molecular target: Bem1-2, P29366; assay: SPOT array; conditions: median of control spots 4347
Sequence (P29366 139-227): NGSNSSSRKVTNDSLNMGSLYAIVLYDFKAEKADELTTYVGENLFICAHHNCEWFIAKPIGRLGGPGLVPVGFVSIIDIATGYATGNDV

SPOT intensity | Binder
169 | B1
109 | B2
1 | B3
1 | B4

molecular target: T11, Sla1-2, P32790; assay: SPOT array; conditions: median of control spots 712

SPOT intensity | Binder
3 | B1
4 | B2
0 | B3
6 | B4

molecular target: Rvs167, P39743; assay: SPOT array; conditions: median of control spots 2707
Sequence (P39743 419-482): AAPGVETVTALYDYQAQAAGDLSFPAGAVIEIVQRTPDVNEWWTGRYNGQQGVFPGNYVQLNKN

SPOT intensity | Binder
0 | B1
45 | B2
0 | B3
0 | B4

molecular target: T12, Bzz1-2, P38822; assay: SPOT array; conditions: median of control spots 4538

SPOT intensity | Binder
9 | B1
4030 | B2
4 | B3
0 | B4

molecular target: T13, Myo5, Q04439; assay: SPOT array; conditions: median of control spots 471

SPOT intensity | Binder
13 | B1
188 | B2
262 | B3
9 | B4

molecular target: T14, Bzz1-1, P38822; assay: SPOT array; conditions: median of control spots 4446

SPOT intensity | Binder
0 | B1
1720 | B2
4 | B3
0 | B4

molecular target: Bem1-1, P29366; assay: SPOT array; conditions: median of control spots 4282
Sequence (P29366 55-141): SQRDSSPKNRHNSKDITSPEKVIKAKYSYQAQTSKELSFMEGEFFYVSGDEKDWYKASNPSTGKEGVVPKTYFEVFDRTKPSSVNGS

SPOT intensity | Binder
0 | B1
0 | B2
0 | B3
3 | B4

molecular target: T15, Nbp2, Q12163; assay: SPOT array; conditions: median of control spots 357

SPOT intensity | Binder
1130 | B1
35 | B2
281 | B3
53 | B4

molecular target: T16, Lsb3, P43603; assay: SPOT array; conditions: median of control spots 406

SPOT intensity | Binder
43 | B1
38 | B2
0 | B3
26 | B4

molecular target: Myo3, P36006; assay: SPOT array; conditions: median of control spots 468

SPOT intensity | Binder
168 | B1
296 | B2
497 | B3
34 | B4

molecular target: T17, Cyk3, Q07533; assay: SPOT array; conditions: median of control spots 1451

SPOT intensity | Binder
1 | B1
1 | B2
1 | B3
1 | B4

molecular target: T18, Lsb4, P32793; assay: SPOT array; conditions: median of control spots 397

SPOT intensity | Binder
35 | B1
39 | B2
2 | B3
18 | B4

molecular target: T19, Sla1-3, P32790; assay: SPOT array; conditions: median of control spots 5475

SPOT intensity | Binder
9 | B1
1790 | B2
0 | B3
8 | B4

molecular target: T20, Pin3, Q06449; assay: SPOT array; conditions: median of control spots 2171

SPOT intensity | Binder
30 | B1
11 | B2
0 | B3
68 | B4

molecular target: GST; assay: SPOT array; conditions: median of control spots 978

SPOT intensity | Binder
2 | B1
2 | B2
0 | B3
0 | B4

molecular target: Sho1, P40073; assay: SPOT array; conditions: median of control spots 1148
Sequence (P40073 287-367): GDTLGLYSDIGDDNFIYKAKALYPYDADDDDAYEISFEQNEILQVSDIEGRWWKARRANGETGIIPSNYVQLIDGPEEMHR

SPOT intensity | Binder
50 | B1
46 | B2
0 | B3
103 | B4

molecular target: T21, Lsb1, P53281; assay: SPOT array; conditions: median of control spots 388

SPOT intensity | Binder
56 | B1
171 | B2
0 | B3
35 | B4
